These results are taken from US20130209396A1 (ELEVEN BIOTHERAPEUTICS, published 2013).

In assay [1] the target is T1, soluble recombinant human IL-1RI (corresponding to the extracellular domain of IL-1RI) (human, UniProt P14778 18-336).
T1 construct: extracellular domain; also called interleukin-1 receptor I; immobilized soluble IL-1RI
T1 sequence (looked up): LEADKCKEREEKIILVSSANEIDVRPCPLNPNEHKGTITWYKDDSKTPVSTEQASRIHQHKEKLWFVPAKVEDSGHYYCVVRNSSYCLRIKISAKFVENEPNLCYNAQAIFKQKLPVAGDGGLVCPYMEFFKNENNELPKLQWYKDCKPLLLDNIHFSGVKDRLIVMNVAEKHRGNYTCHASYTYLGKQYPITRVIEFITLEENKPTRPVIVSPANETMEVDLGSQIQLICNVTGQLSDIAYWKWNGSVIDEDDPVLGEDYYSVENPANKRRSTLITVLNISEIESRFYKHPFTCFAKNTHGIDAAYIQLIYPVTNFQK
Nature of the assay: SPR (Reichert SR7000DC), soluble human IL-1RI; end of range tied to P04 by Table 7. As for the experimental part:
(§1) The binding properties of proteins for soluble recombinant human IL-1RI (corresponding to the extracellular domain of IL-1RI) were evaluated using surface plasmon resonance with a Reichert SR7000DC Dual Channel SPR system. Binding was evaluated in phosphate buffered saline with 0.005% Tween 20. […] Thus, the P01 protein bound to IL-1RI with a greater affinity than did IL-1β under similar conditions.
(§2) See for example FIGS. 9C and 9D and Table 7 below.

The target in assay [2] is T1, soluble recombinant human IL-1RI …. Kind of assay: SPR (Reichert SR7000DC), soluble human IL-1RI; end of range tied to P03 (highest Kd) by Table 7. As for the experimental part:
as §1, §2

In assay [3] the target is T2, IL-1RI on HEK-Blue IL-1β responsive cells (UniProt P14778 18-569).
T2 sequence (looked up): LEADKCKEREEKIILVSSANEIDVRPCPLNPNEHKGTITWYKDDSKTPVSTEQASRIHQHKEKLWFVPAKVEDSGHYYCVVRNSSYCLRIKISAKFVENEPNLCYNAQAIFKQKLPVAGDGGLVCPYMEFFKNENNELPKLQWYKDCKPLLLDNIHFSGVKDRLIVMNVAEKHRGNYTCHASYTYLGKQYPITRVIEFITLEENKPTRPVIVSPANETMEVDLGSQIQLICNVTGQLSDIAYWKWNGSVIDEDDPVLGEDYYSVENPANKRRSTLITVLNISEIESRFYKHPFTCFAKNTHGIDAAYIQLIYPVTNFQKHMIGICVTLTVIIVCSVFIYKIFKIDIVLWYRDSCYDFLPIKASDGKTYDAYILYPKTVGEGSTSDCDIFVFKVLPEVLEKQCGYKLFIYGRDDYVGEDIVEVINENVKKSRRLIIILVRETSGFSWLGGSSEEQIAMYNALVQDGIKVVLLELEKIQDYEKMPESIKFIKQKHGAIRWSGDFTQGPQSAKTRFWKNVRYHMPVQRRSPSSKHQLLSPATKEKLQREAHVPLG
Kind of assay: cell-based or functional assay.

The target in assay [4] is T1, soluble recombinant human IL-1RI …. Nature of the assay: SPR (Reichert SR7000DC), soluble human IL-1RI; end of range tied to P02 (lowest Kd) by Table 7. As for the experimental part: as §1, §2

B1: P04 (designed binder)
chain: APVRSLAFRIWDVNQKTFYLRNNQLVAGYLQGPNVNLEEKFSMSFVQGEESNDKIPVALGLKEKNLYLSCVLKDDKPTLQLESVDPKNYPKKKMEKRFVFNKIEINNKLEFESAACPGWFLCTAMEADQPVSLTNMPDEGVMVTKFTMQFVSS
notes: Chimeric IL-1β/IL-1Ra cytokine domain expressed in E. coli; Both hexa-histidine tagged and untagged forms were made; also called P04 domain
As to B1, in assay [1], the Kd is 1.7 nM and the kon is 30000 M⁻¹ s⁻¹.

B2: P03 (designed binder)
chain: APVRSLAFRIWDVNQKTFYLRNNQLVAGYLQGPNVNLEEKFSMSFVQGEESNDKIPVALGLKEKNLYLSCVLKDDKPTLQLESVDPKNYPKKKMEKRFVFIRSDSGPTTSFESAACPGWFLCTAMEADQPVSLTNMPDEGVMVTKFTMQFVSS
notes: Chimeric IL-1β/IL-1Ra cytokine domain expressed in E. coli; Both hexa-histidine tagged and untagged forms were made; also called P03 domain
For the molecule B2, the koff in assay [2] is 0.001 s⁻¹.

B3: P05 (designed binder)
chain: APVRSLNCRIWDVNQKTFYLRNNQLVAGYLQGPNVNLEEKFSMSFVQGEESNDKIPVALGLKEKNLYLSCVLKDDKPTLQLESVDPKNYPKKKMEKRFVFNKIEINNKLEFESAQFPNWFLCTAMEADQPVSLTNMPDEGVMVTKFYMQFVSS
With B3, the “IC50 of antagonism of IL-1β activity, SEAP reporter in HEK-Blue IL-1β cells” value in assay [3] was less than 5 ng/mL.

B4: P02 (designed binder)
chain: APVRSLAFRIWDVNQKTFYLRNNQLVAGYLQGPNVNLEEKIDVSFVQGEESNDKIPVALGIHGGKMCLSCVKSGDETRLQLEAVDPKNYPKKKMEKRFVFNKIEINNKLSFESAACPGWFLCTAMEADQPVSLTNMPDEGVMVTKFYMQFVSS
notes: Chimeric IL-1β/IL-1Ra cytokine domain expressed in E. coli; also called P02 domain
For the molecule B4, in assay [4], the koff is 2e-05 s⁻¹.

A word on the Kd: it is the free concentration of one partner at which half of the binding sites on the other are occupied at equilibrium, for simple one-to-one binding. For orientation: kon means a measure of how fast the partners come together. For orientation: koff means the rate constant with which the complex falls apart.
